{"source": "patent US20090099029"}
{"molecular_target": "Bovine, dephosphorylated, Myelin Basic Protein (MBP) (UniProt P02687)", "sequence (P02687 whole entry)": "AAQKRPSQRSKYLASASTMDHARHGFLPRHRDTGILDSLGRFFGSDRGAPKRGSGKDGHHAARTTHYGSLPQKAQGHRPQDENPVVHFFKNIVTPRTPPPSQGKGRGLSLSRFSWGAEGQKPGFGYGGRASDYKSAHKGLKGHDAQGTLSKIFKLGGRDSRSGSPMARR"}
{"substance": "NTRK1", "MBP Kinase Activity": "Strong"}
{"substance": "NTRK3", "MBP Kinase Activity": "Strong"}
{"substance": "CLK3", "MBP Kinase Activity": "Strong"}
{"substance": "CSNK1G2", "MBP Kinase Activity": "Negative"}
{"substance": "FGR", "MBP Kinase Activity": "Weak"}
{"substance": "PIM1", "MBP Kinase Activity": "Strong"}
{"substance": "BLK", "MBP Kinase Activity": "Weak"}
{"substance": "SGK", "MBP Kinase Activity": "Strong"}
{"substance": "FYN", "MBP Kinase Activity": "Strong"}
{"substance": "CDK1/cyclin B", "MBP Kinase Activity": "Strong"}
{"substance": "CSNK1G3", "MBP Kinase Activity": "Weak"}
{"substance": "NEK6", "MBP Kinase Activity": "Negative"}
{"substance": "PKN1(PRK1)", "MBP Kinase Activity": "Strong"}
{"substance": "MLCK", "MBP Kinase Activity": "Negative"}
{"substance": "YES1", "MBP Kinase Activity": "Weak"}
{"substance": "MAP4K5(KHS1)", "MBP Kinase Activity": "Negative"}
{"substance": "EGFR", "MBP Kinase Activity": "Negative"}
{"substance": "NTRK2", "MBP Kinase Activity": "Strong"}
{"substance": "PIM2", "MBP Kinase Activity": "Weak"}
{"substance": "EPHA7", "MBP Kinase Activity": "Weak"}
{"substance": "SGKL(SGK3)", "MBP Kinase Activity": "Weak"}
{"substance": "WEE1", "MBP Kinase Activity": "Negative"}
{"substance": "CLK1", "MBP Kinase Activity": "Strong"}
{"substance": "MST4", "MBP Kinase Activity": "Negative"}
{"substance": "ADRBK2(GRK3)", "MBP Kinase Activity": "Negative"}
{"substance": "PRKCG", "MBP Kinase Activity": "Strong"}
{"substance": "STK24(MST3)", "MBP Kinase Activity": "Weak"}
{"substance": "CSNK1G1(CK1gamma1)", "MBP Kinase Activity": "Negative"}
{"substance": "AKT1", "MBP Kinase Activity": "Strong"}
{"substance": "PRKCB1", "MBP Kinase Activity": "Strong"}
{"substance": "NEK7", "MBP Kinase Activity": "Negative"}
{"substance": "STK25(YSK1)", "MBP Kinase Activity": "Strong"}
{"substance": "PHKG1", "MBP Kinase Activity": "Negative"}
{"substance": "PRKCD", "MBP Kinase Activity": "Strong"}
{"substance": "CLK4", "MBP Kinase Activity": "Negative"}
